# Measured values from the supplement of paper PMC7877785.
# ± gives the uncertainty stated by the source.
# Experiment: self-splicing fitness, log relative to wild type (ln ratio); higher = more splicing; Tetrahymena group I intron in knt gene, E. coli kanamycin selection, DiMSum; sequences stand for … in CUCUCU…GGAGGGAAAAGUUAUCAGGCAUGCACCUGGUAGCUAGUCUUUAAACCAAUAGAUUGCAUCGGUUUAAAAGGCAAGACCGUCAAAUUGCGGGAAAGGGGUCAACAGCCGUUCAGUACCAAGUCUCAGGGGAAACUUUGAGAUGGCCUUGCAAAGGGUAUGGUAAUAAGCUGACGGACAUGGUCCUAACCACGCAGCCAAGUCCUAAGUCAACAGAUCUUCUGUUGAUAUGGAUGCAGUUCACAGACUAAAUGUCGGUCGGGGAAGAUGUAUUCUUCUCAUAAGAUAUAGUCGGACCUCUCCUUAAUGGGAGCUAGCGGAUGAAGUGAUGCAACACUGGAGCCGCUGGGAACUAAUUUGUAUGCGAAAGUAUAUUGAUUAGUUUUGGAGUACUCGUGGUCG
# Outline: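 Pooled colonies went to amplicon sequencing on an Illumina HiSeq 2500 after six replicate transformations. The plates were LB agar with 100 μg/mL carbenicillin, 50 μM IPTG and 0.2% rhamnose, with or without 25 μg/mL kanamycin, incubated overnight at 37°C or 30°C. The E. coli BL21(DE3) library had all eight P1ex-region intron nucleotides randomised, the intron placed in the knt kanamycin-resistance gene on pET-22b(+). DiMSum fitness is the error-weighted combination of replicate fold changes, kanamycin against none, normalised to wild type.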
Sequence,self-splicing fitness (ln) (30 °C),self-splicing fitness (ln) (37 °C)
UAUCAGCAAUAUUACGGGCG,0.0109 ± 0.065,0.684 ± 0.088
UAUCAGCAAUAUUACGGUCU,-0.719 ± 0.092,-0.878 ± 0.11
UAUCAGCAAUAUUACGUCCU,-1.44 ± 0.18,-1.01 ± 0.2
UAUCAGCAAUAUUACGUUAC,-4.75 ± 0.39,-2.6 ± 0.21
UAUGAGCAAUAUUACGAACU,,-1.57 ± 0.26
UAUGAGCAAUAUUACGAAGG,-3.5 ± 0.2,-1.4 ± 0.22
UAUGAGCAAUAUUACGAAUA,-2.94 ± 0.27,-2.22 ± 0.21
UAUGAGCAAUAUUACGACAA,-2.78 ± 0.29,-0.6 ± 0.18
UAUGAGCAAUAUUACGACAC,,-1.97 ± 0.41
UAUGAGCAAUAUUACGACAU,-3.523 ± 0.029,-2.56 ± 0.042
UAUGAGCAAUAUUACGAGAA,-2.28 ± 0.37,-0.332 ± 0.24
UAUGAGCAAUAUUACGCAAA,-2.74 ± 0.45,
UAUGAGCAAUAUUACGCAAU,-3.54 ± 0.25,-2.32 ± 0.18
UAUGAGCAAUAUUACGCGAC,-2.82 ± 0.44,-0.954 ± 0.39
UAUGAGCAAUAUUACGCGCC,-4.05 ± 0.42,
UAUGAGCAAUAUUACGCGGA,-2.39 ± 0.25,-1.69 ± 0.24
UAUGAGCAAUAUUACGCGUG,-1.88 ± 0.12,-1.04 ± 0.11
UAUGAGCAAUAUUACGGAUG,-2.09 ± 0.12,-1.64 ± 0.17
UAUGAGCAAUAUUACGGCGU,-3.11 ± 0.21,-2.38 ± 0.29
UAUGAGCAAUAUUACGGUCU,-2.78 ± 0.28,-2.96 ± 0.4
UAUGAGCAAUAUUACGUCGA,-3.12 ± 0.38,-2.47 ± 0.36
UAUGAGCAAUAUUACGUCUU,-2.71 ± 0.27,-1.93 ± 0.23
UAUGAGCAAUAUUACGUGUG,-2.41 ± 0.097,-1.1 ± 0.085
UAUGAGCAAUAUUACGUGUU,-3.34 ± 0.17,-2.99 ± 0.18
UAUUAGCAAUAUUACGACAG,-1.58 ± 0.18,-0.556 ± 0.19

Sequence,self-splicing fitness (ln) (30 °C),self-splicing fitness (ln) (37 °C)
UAUUAGCAAUAUUACGACCG,0.0866 ± 0.13,-0.0729 ± 0.16
UAUUAGCAAUAUUACGACUA,-0.146 ± 0.096,0.46 ± 0.11
UAUUAGCAAUAUUACGAGAC,-2.57 ± 0.47,
UAUUAGCAAUAUUACGAGUA,-0.732 ± 0.25,-0.0897 ± 0.24
UAUUAGCAAUAUUACGAUCA,-0.168 ± 0.11,-0.249 ± 0.14
UAUUAGCAAUAUUACGAUGA,-0.641 ± 0.11,0.262 ± 0.13
UAUUAGCAAUAUUACGAUGU,-3.01 ± 0.23,-1.06 ± 0.15
UAUUAGCAAUAUUACGCAAG,-2.29 ± 0.16,-1.8 ± 0.18
UAUUAGCAAUAUUACGCAUC,-3.67 ± 0.31,-1.7 ± 0.3
UAUUAGCAAUAUUACGCCCG,0.243 ± 0.36,1.09 ± 0.36
UAUUAGCAAUAUUACGCGUA,-1.95 ± 0.16,-0.462 ± 0.12
UAUUAGCAAUAUUACGCUGC,-2.92 ± 0.27,-2.59 ± 0.49
UAUUAGCAAUAUUACGGAAU,-4.02 ± 0.33,-0.66 ± 0.19
UAUUAGCAAUAUUACGGACA,-1.16 ± 0.2,0.703 ± 0.28
UAUUAGCAAUAUUACGGACU,-2.33 ± 0.31,-1.47 ± 0.4
UAUUAGCAAUAUUACGGAGU,-3.84 ± 0.43,-2.01 ± 0.29
UAUUAGCAAUAUUACGGAUA,,-0.897 ± 0.46
UAUUAGCAAUAUUACGGAUC,-1.65 ± 0.18,-0.508 ± 0.28
UAUUAGCAAUAUUACGGUAU,-3.6 ± 0.29,-2.26 ± 0.31
UAUUAGCAAUAUUACGGUUG,-0.953 ± 0.15,-0.107 ± 0.17
UAUUAGCAAUAUUACGUACU,-0.305 ± 0.13,-0.224 ± 0.16
UAUUAGCAAUAUUACGUAUC,-3.31 ± 0.24,-2.47 ± 0.29
UAUUAGCAAUAUUACGUCGG,-1.21 ± 0.12,-0.795 ± 0.15
UAUUAGCAAUAUUACGUGAC,-2.92 ± 0.42,-1.82 ± 0.27
UAUUAGCAAUAUUACGUGGA,-2.75 ± 0.32,-0.0772 ± 0.19

Sequence,self-splicing fitness (ln) (30 °C),self-splicing fitness (ln) (37 °C)
UAUUAGCAAUAUUACGUGGG,-4.06 ± 0.27,-2.44 ± 0.17
UAUUAGCAAUAUUACGUUAC,-3.17 ± 0.23,-2.86 ± 0.32
UCAAAGCAAUAUUACGAAGG,-2.26 ± 0.1,-1.05 ± 0.13
UCAAAGCAAUAUUACGAAUU,-3.32 ± 0.25,-1.65 ± 0.16
UCAAAGCAAUAUUACGACCG,-0.525 ± 0.15,0.396 ± 0.21
UCAAAGCAAUAUUACGACGA,-0.51 ± 0.074,0.278 ± 0.095
UCAAAGCAAUAUUACGACUG,-0.4 ± 0.086,-0.859 ± 0.11
UCAAAGCAAUAUUACGAGGU,-3.05 ± 0.13,-2.14 ± 0.14
UCAAAGCAAUAUUACGCACA,-0.843 ± 0.079,-0.191 ± 0.082
UCAAAGCAAUAUUACGCAGA,-3.13 ± 0.21,-2.64 ± 0.16
UCAAAGCAAUAUUACGCCUG,-0.562 ± 0.066,-0.293 ± 0.091
UCAAAGCAAUAUUACGCUAC,-2.96 ± 0.46,-2.22 ± 0.37
UCAAAGCAAUAUUACGGAUC,-3.94 ± 0.41,-3.23 ± 0.4
UCAAAGCAAUAUUACGGCCG,-0.434 ± 0.1,0.158 ± 0.17
UCAAAGCAAUAUUACGGUAC,-3.28 ± 0.16,-2.71 ± 0.22
UCAAAGCAAUAUUACGGUUG,-1.38 ± 0.086,-0.732 ± 0.12
UCAAAGCAAUAUUACGUAAA,-1.73 ± 0.13,-1.94 ± 0.21
UCAAAGCAAUAUUACGUACA,-1.2 ± 0.14,-0.562 ± 0.16
UCAAAGCAAUAUUACGUAUU,-3.03 ± 0.14,-2.13 ± 0.17
UCAAAGCAAUAUUACGUCAG,-1.75 ± 0.086,-0.944 ± 0.097
UCAAAGCAAUAUUACGUCCG,-0.781 ± 0.12,-0.625 ± 0.16
UCAAAGCAAUAUUACGUCGA,-0.83 ± 0.077,-0.792 ± 0.081
UCAAAGCAAUAUUACGUGCC,-2.35 ± 0.18,-1.57 ± 0.39
UCAAAGCAAUAUUACGUUAA,-3.54 ± 0.19,-0.92 ± 0.12
UCACAGCAAUAUUACGAAUG,-1.77 ± 0.097,-1.61 ± 0.14

Sequence,self-splicing fitness (ln) (30 °C),self-splicing fitness (ln) (37 °C)
UCACAGCAAUAUUACGAGAA,-3.16 ± 0.34,-1.68 ± 0.24
UCACAGCAAUAUUACGAGAU,-4.39 ± 0.25,-2.85 ± 0.24
UCACAGCAAUAUUACGAGUA,-2.02 ± 0.1,-1.52 ± 0.085
UCACAGCAAUAUUACGAUAU,-2.96 ± 0.22,-2.67 ± 0.19
UCACAGCAAUAUUACGAUUG,-2.97 ± 0.12,-1.34 ± 0.11
UCACAGCAAUAUUACGCCUG,-1.21 ± 0.11,-0.438 ± 0.12
UCACAGCAAUAUUACGCGAG,-1.32 ± 0.063,-0.0838 ± 0.077
UCACAGCAAUAUUACGCGUA,-1.09 ± 0.086,-0.297 ± 0.082
UCACAGCAAUAUUACGCGUU,-4 ± 0.21,-2.13 ± 0.17
UCACAGCAAUAUUACGCUUU,-3.36 ± 0.15,-3.6 ± 0.27
UCACAGCAAUAUUACGGAUA,-2.87 ± 0.16,-1.47 ± 0.12
UCACAGCAAUAUUACGGGUA,-1.93 ± 0.13,-0.772 ± 0.1
UCACAGCAAUAUUACGGUCA,-0.0483 ± 0.085,0.318 ± 0.099
UCACAGCAAUAUUACGUAGG,-1.07 ± 0.055,-1.05 ± 0.082
UCACAGCAAUAUUACGUAUU,-3.5 ± 0.15,-2.54 ± 0.14
UCACAGCAAUAUUACGUCAA,-2.7 ± 0.17,-1.46 ± 0.13
UCACAGCAAUAUUACGUCCU,-3.15 ± 0.19,-2.27 ± 0.15
UCACAGCAAUAUUACGUCUU,-1.68 ± 0.12,-2.4 ± 0.16
UCACAGCAAUAUUACGUGAG,-0.886 ± 0.03,-0.396 ± 0.052
UCACAGCAAUAUUACGUGCC,-1.42 ± 0.11,0.00553 ± 0.12
UCAGAGCAAUAUUACGACUU,-2.45 ± 0.19,-3.12 ± 0.38
UCAGAGCAAUAUUACGCAGA,-2.96 ± 0.27,-1.47 ± 0.21
